One data set has as its system insulin. Nature of the data set: Plasma insulin after acute oral dosing in rats, Rat Insulin ELISA. The format is in vivo. Conditions: Rat Insulin ELISA kit; oral gavage. Here is the method:
Animals were treated and acutely dosed with various test articles as part of pharmacokinetic rodent experiments according to methods described herein. Unless otherwise stated all dosing was at 2.85 g/kg body weight. All treatment groups except for SEQID-00240 which had n=5 rats, and SEQID-00587 which had n=3, contained n=4 rats.
An Ultra-Sensitive Rat Insulin ELISA Kit was obtained from Crystal Chem, Inc. (Catalog number 90060, Downers Grove, IL). Plates were washed using a BioTek ELx50 microplate strip washer (BioTek, Winooski, VT). Absorbance was read on a Synergy Mx monochromator-based microplate reader (BioTek, Winooski, VT). Data was analyzed using Microsoft Excel version 14.0.7128.5000 (Microsoft Corporation, Redmond, WA) and GraphPad Prism version 6.03 for Windows (GraphPad Software, La Jolla, CA).
The ELISA kit was pre-warmed to room temperature for 30 minutes prior to beginning the assay set up. The standard curve dilutions were prepared in accordance with the manufacturer's instructions for running the assay in Wide Range format. […]
Anti-Insulin Enzyme Conjugate Working Solution was prepared by combining 2 volumes Anti-Insulin Enzyme Conjugate Stock with 1 volume Enzyme Conjugate Diluent, and mixing by pipetting up and down and gently vortexing. […] The absorbance was read on the Synergy Mx plate reader at 450 nm and 630 nm. […]
In general terms: In an ELISA, binding on a coated surface is turned into a signal by an enzyme label.

Data set [1] is described as follows: pH solubility screen in Citric Acid / Dibasic Sodium Phosphate buffers. The format is physicochemical. The procedure: pH Solubility. […] Protein was either lyophilized and then resuspended in buffer cocktail mixtures, or concentrated and then spiked into buffer cocktail mixtures at a final protein concentration of 5 to 30 mg/ml. As a control, protein was also dissolved in a solution of 8 M urea. Protein solutions were shaken for 10 min at room temperature. Turbidity of proteins was determined by measuring the absorbance of protein solutions at 650 nm. The protein solution was then centrifuged for 10 min at 1100×g to pellet undissolved or precipitated protein. The soluble protein fraction (supernatant) was sampled and protein concentration was measured by one or more of the following methods: Coomassie Plus Protein Assay (Pierce), Chip electrophoresis, gel electrophoresis, and/or absorbance at 280 nm. The pH range over which select proteins remained greater than 80% soluble as determined by Bradford and the A650 value are listed in Table E31C.

Data set [2] can be described thus: Thermostability, ProteoStat Thermal Shift Stability Kit, temperature of aggregation. The format is physicochemical. To be noted: pH 7.1; heated from 25° C. to 95° C. The procedure:
Thermostability. The thermostability of proteins in a buffer cocktail of Citric Acid and Dibasic Sodium Phosphate over a pH range of 2.8 to 7.1 (preparation described above in Table E31B) was determined using the ProteoStat® Thermal Shift Stability Kit (Enzo Life Sciences) according to the manufacturer's standard protocol. Briefly, protein solutions (˜10 mg/ml) containing 1× ProteoStat TS Detection Reagent were heated from 25° C. to 95° C. at a rate of 0.5° C. per 30 sec using a real-time PCR (rtPCR) thermocycler (BioRad) equipped with a plate reader (SynergyMx, Biotek) while monitoring the fluorescence with a Texas Red filter.

A short description of data set [3]: Rat pharmacokinetic studies, plasma amino acids by HPLC. To be noted: oral administration to rats.
Description: Rat pharmacokinetic studies. Male Sprague Dawley rats with indwelling jugular vein cannula (JVC) were purchased from Harlan Laboratories and acclimated to the Test Facility (Agilux Laboratories) for at least two days prior to study initiation. Prior to dose administration animals were fasted overnight (11-13 h) and remained fasted until completion of the study. Test articles were orally administered via a bulb-tipped 18 gauge stainless steel gavage needle attached to a syringe. The weight of all dose syringes were recorded prior to and following dosing to more accurately determine the amount of solution dosed. Serial blood samples (˜300 μL) were collected from the JVC at time 0 (pre-dose) and 0.25, 0.5, 1, 2, and 4 h post-dose. Blood samples were collected into tubes containing the anti-coagulant K2EDTA, a general protease inhibitor cocktail (Sigma P8340, diluted 1:100 in whole blood), and a DPP IV inhibitor (Millipore DPP4, diluted 1:100 in whole blood). Immediately following blood collection tubes were vortexed and stored on wet ice until processing to plasma by centrifugation (3,500 rpm at 5° C.) within 1 h of collection. Plasma samples were then transferred into new tubes and stored at −80° C.
The concentration of Glu, Ser, His, Gly, Thr, Arg, Ala, Tyr, Val, Met, Phe, Ile, Leu, and Lys in the plasma samples was determined by HPLC amino acid analysis, as described herein. Prior to HPLC amino acid analysis, insoluble particles were removed from plasma samples by centrifugation (1100×g at 4° C.) for 10 min. A 25 μL sample of the soluble fraction was then transferred to a 96-well plate, for some samples an internal standard (Norvaline, Agilent) was added to each plasma sample at final concentration of 0.5 mM.
Data set [4] is described as follows: Intact half-life during simulated gastric fluid (SGF) digestion. Conditions: SGF pH 1.5, pepsin:polypeptide 1:20 w/w, 37° C.; produced in E. coli unless otherwise noted.
Data set [5] is described as follows: Solubility of proteins (lyophilized/reconstituted or ultrafiltered). Conditions: produced in E. coli unless otherwise noted.
Description: Solubility. […] Protein samples were dried by lyophilization on a FreeZone Freeze Dry System (Labconco) using the manufacturer's standard protocol and then resuspended in buffer to the desired concentration. Centrifugal and tangential ultrafiltration were used to selectively remove buffer from the protein sample until the desired concentration was reached. Centrifugal ultrafiltration of protein solutions was performed by centrifugation (10,000×g) of 10 mg of protein in an Amicon centrifugal filter (Millipore) with a molecular weight cutoff of 3 kDa, 10 kDa, or 30 kDa, depending on the protein size, until the desired contrentration was reached. Ultrafiltration of protein solutions was performed on Hydrosart ultrafiltration cassettes (Sartorius Stedim, Bohemia, NY) with a molecular weight cutoff of 3 kDa, 10 kDa, or 30 kDa, depending on the protein size, at a cross flow rate of 12 L/m2/min. For most processes, transmembrane pressure was maintained at 20 psi and performed until the desired contrentration was reached.
The protein concentration of the above samples was measured by one or a combination of the following methods: Coomassie Plus Protein Assay, absorbance at 280 nm (A280), and total amino acid analysis. Coomassie Plus Protein Assays (Pierce) were performed according to the manufacturer's protocol. Absorbance at 280 nm was measured on a Nanodrop 2000 UV-Vis spectrophotometer. Protein concentration was determined using the A280 value and molar extinction coefficient, which was calculated by primary amino acid sequence using ProtParam (Gasteiger, Elisabeth, et al. The proteomics protocols handbook. Humana Press, 2005. 571-607.). Total amino acids were analyzed by HPLC after acid hydrolysis as described in Henderson, J. W., et al. Agilent Technologies (2010).

Here are results for 1 substance from patent US20260069656A1, “Nutritive Polypeptides and Formulations Thereof, and Methods of Production and Use Thereof” (Axcella Health Inc., priority 2013, published 2026).

As usually defined, the Solubility is the concentration that dissolves in the medium under given conditions.

Consider “SEQID-00240: nutritive polypeptide naturally produced in Cow, recombinantly expressed in E. coli (DLEGSLEQEKKLRMDLERAKRKLEGDLKLAQESTMDIENDKQQLDEKLKK; listed as Bos taurus)”, for which, in the data set with insulin, the “plasma insulin concentration vs time 0” value was “statistically significant increase in plasma insulin at 15 and 30 minutes post gavage compared to time 0”. Also, the “pH Range where Protein is >80% detected as Soluble and A650 <1 OD: Low” value in data set [1] (lower pH of range) worked out at 6.6. The “pH Range where Protein is >80% detected as Soluble and A650 <1 OD: High” value in data set [1] (upper pH of range) worked out at 9.1. In data set [2], the “Tagg (pH 7.1)” value is listed as above 95. For the same substance, in data set [3], the “plasma Phe concentration” value is on record as “causing no flux in plasma Phe concentration”. In data set [3] (doses of Table E33A), the “change in AUC0-4 h for plasma Lys” value is on record as “increased the change in AUC0-4 h for plasma Lys”. Further, the “SGF Half-life (t½)” value in data set [4] is given as 0.7 min. Further, the “Solubility” value in data set [5] was 163 g/L.
